Source: patent publication US20230391832A1 (ISOLERE BIO, published 2023)

Target: T1, AAV9 capsids (adeno-associated virus serotype 9, Assembled icosahedral capsid of about 60 subunits (VP1, VP2, VP3 from one gene). One VP1 chain is given. Example 1's screen does not say whether the capsids were full or empty.)
T1 construct: Assembled virus capsid
Assay: ELISA, AAV9 capsids coated on plate, His-tagged variant in E. coli lysate, anti-His-HRP luminescence; signal relative to HSA (A) or to PKD2 control (B)

Binder | fold specificity for AAV9 capsids [fold]
SEQ ID NO 44 (designed binder, N-terminal Met printed as (M)) MATGVRAVPGNENSLEIEELARFAVDEHNKKENALLEFVRMVKAKEQYISVDKWVATMYYLTLEAKDGGKKKLYEAKVWVKYGGSCWRGGNFKELQEFKPVGDA | > 3
SEQ ID NO 26 (designed binder, N-terminal Met printed as (M)) MATGVRAVPGNENSLEIEELARFAVDEHNKKENALLEFVRVVKAKEQVVAGTMYYLTLEAKDGGKKKLYEAKVWVKIRAIVYWSGNFKELQEFKPVGDA | > 3
SEQ ID NO 29 (designed binder, N-terminal Met printed as (M)) MATGVRAVPGNENSLEIEELARFAVDEHNKKENALLEFVRVVKAKEQVVAGTMYYLTLEAKDGGKKKLYEAKVWVKAAGYYVYAPNFKELQEFKPVGDA | > 3
SEQ ID NO 31 (designed binder, N-terminal Met printed as (M)) MATGVRAVPGNENSLEIEELARFAVDEHNKKENALLEFVRVVKAKEQVVAGTMYYLTLEAKDGGKKKLYEAKVWVKISRPGWWPWNFKELQEFKPVGDA | > 3
SEQ ID NO 33 (designed binder, N-terminal Met printed as (M)) MATGVRAVPGNENSLEIEELARFAVDEHNKKENALLEFVRVVKAKEQVVAGTMYYLTLEAKDGGKKKLYEAKVWVKVRRDIVVPRNFKELQEFKPVGDA | > 3
SEQ ID NO 42 (designed binder, N-terminal Met printed as (M)) MATGVRAVPGNENSLEIEELARFAVDEHNKKENALLEFVRVVKAKEQVVAGTMYYLTLEAKDGGKKKLYEAKVWVKGRYSVYWYVNFKELQEFKPVGDA | > 3
SEQ ID NO 37 (designed binder, N-terminal Met printed as (M)) MATGVRAVSGNENSLEIEELARFAVDEHNKKENALLEFVRVVKAKEQVVAGTMYYLTLEAKDGGKKKLYEAKVWVKSPVYWPKGGNFKELQEFKPVGDA | > 3
SEQ ID NO 45 (designed binder, N-terminal Met printed as (M)) MATGVRAVPGNENSLEIEELARFAVDEHNKKENALLEFVRVVKAKEQVVAGTMYYLTLEAKDGGKKKLYEAKVWVKVAAYPRASINFKELQEFKPVGDA | > 3
SEQ ID NO 48 (designed binder, N-terminal Met printed as (M)) MATGVRAVPGNENSLEIEELARFAVDEHNKKENALLEFVCVVKAKEQVVAGTMYYLTLEAKDGGKKKLYEAKVWVKVAPIYSVDSNFKELQEFKPVGDA | > 3
SEQ ID NO 52 (designed binder, N-terminal Met printed as (M)) MATGVRAMPGNENSLEIEELARFAVDEHNKKENALLEFVRVVKAKEQVVAGTMYYLTLEAKDGGKKKLYEAKVWVKVWWVVSDPANFKELQEFKPVGDA | > 3
SEQ ID NO 39 (designed binder, N-terminal Met printed as (M)) MATGVRAVPGNENSLEIEELARFAVDEHNKKENALLEFVRVVKAKEQVVAGTMYYLTLEAKDGGKKKLYEAKVWVKWRAVRWWWGNFKELQEFKPVGDA | > 3
SEQ ID NO 40 (designed binder, N-terminal Met printed as (M)) MATGVRAVPGNENSLEIEELARFAVDEHNKKENALLEFVRVVKAKEQVVAGTMYYLTLEAKDGGKKKLYEAKVWVKVVGKWWVNINFKELQEFKPVGDA | > 3
SEQ ID NO 34 (designed binder, N-terminal Met printed as (M)) MATGVRAVPGNENSLEIEELARFAVDEHNKKENALLEFVRVVKAKEQVVACTMYYLTLEAKDDGKKKLYEAKVWVKSRVRVIRWGNFKELQEFKPVGDA | > 3
SEQ ID NO 41 (designed binder, N-terminal Met printed as (M)) MATGVRAVPGNENSLEIEELARFAVDEHNKKENALLEFVRVVKAKEQVVAGTMYYLTLEAKDGGKKKLYEAKVWVKARYVVYYRWNFKELQEFKPVGDA | > 3
SEQ ID NO 46 (designed binder, N-terminal Met printed as (M)) MATGVRAVPGNENSLEIEELARFAVDEHNKKENALLEFVRVVKAKEQVVAGTMYYLTLEAKDGGKKKLYEAKVWVKIGIPIRIWSNFKELQEFKPVGDA | > 3
SEQ ID NO 43 (designed binder, N-terminal Met printed as (M)) MATGVRAVPGNENSLEIEELARFAVDEHNKKENALLEFVRVVKAKEQVVAGTMYYLTLEAKDGGKKKLYEAKVWVKVRYPPNIWKNFKELQEFKPVGDA | > 3

Binder | fold specificity for AAV9 capsids [fold]
SEQ ID NO 49 (designed binder, N-terminal Met printed as (M)) MATGVRAVPGNENSLEIEELARFAVDEHNKKENALLEFVRVVKAKEQVVAGTMYYLTLEAKDGGKKKLYEAKVWVKSVAIRNWYWNFKELQEFKPVGDA | > 3
SEQ ID NO 32 (designed binder, N-terminal Met printed as (M)) MATGVRAVPGNENSLEIEELARFAVDEHNKKENALLEFVRVVKAKEQVVAGTMYYLTLEAKDGGKKKLYEAKVWVKSRSVRIWYSNFKELQEFKPVGDA | > 3
SEQ ID NO 36 (designed binder, N-terminal Met printed as (M)) MATGVRAVPSNENSLEIEELARFAVDEHNKKENALLEFVRVVKAKEQVVAGTMYYLTLEAKDGGKKKLYEAKVWVKAIKYVRYKANFKELQEFKPVGDA | > 3
SEQ ID NO 28 (designed binder, N-terminal Met printed as (M)) MATGVRAVPGNENSLEIEELARFAVDEHNKKENALLEFVRVVKAKEQVVAGTMYYLTLEAKDGGKKKLYEAKVWVKAGYIGRSKANFKELQEFKPVGDA | > 3
SEQ ID NO 47 (designed binder, N-terminal Met printed as (M)) MATGVRAVPGNENSLEIEELARFAVDEHNKKENALLEFVRVVKAKEQVVAGTMYYLTLEAKDGGKKKLYEAKVWVKVNIYVISPRNFKELQEFKPVGDA | > 3
SEQ ID NO 51 (designed binder, N-terminal Met printed as (M)) MATGVRAVPGNENSLEIEELARFAVDEHNKKENALLEFVRVVKAKEQVVAGTMYYLTLEAKDGGKKKLYEAKVWVKVRYWVDRRKNFKELQEFKPVGDA | > 3
SEQ ID NO 27 (designed binder, N-terminal Met printed as (M)) MATGVRAVPGNENSLEIEELARFAVDEHNKKENALLEFVRVMKAKEQVVAGTMYYLTLEAKDGGKKKLYEAKVWVKGVIYAYSYSNFKELQEFKPVGDA | > 3
SEQ ID NO 38 (designed binder, N-terminal Met printed as (M)) MATGVRAVPGNENSLEIEELARFAVDEHNKKENALLEFVRVVKAKEQVVAGTMYYLTLEAKDGGKKKLYEAKVWVKSASYYVYSYNFKELQEFKPVGDA | > 3
SEQ ID NO 35 (designed binder, N-terminal Met printed as (M)) MATGVRAVPGNENSLEIEELARFAVDEHNKKENALLEFVRVVKAKEQVVAGTMYYLTLEAKDGGKKKLYEAKVWVKVRDIVSIRGNFKELQEFKPVGDA | > 3
SEQ ID NO 50 (designed binder, N-terminal Met printed as (M)) MATGVRAVPGNENSLEIEELARFAVDEHNKKENALLEFVRVVKAKEQVVAGTMYYLTLEAKDGGKKKLYEAKVWVKVRRYSPPNRNFKELQEFKPVGDA | > 3
SEQ ID NO 30 (designed binder, N-terminal Met printed as (M)) MATGVRAVSGNENGLEIEELARFAVDEHNKKENALLEFVRVVKAKEQVVAGTMYYLTLEAKDGGKKKLYEAKVWVKRIVRVAVWVNFRELQEFKPVGDA | > 3
MCAIDNFPCNWYIDCIGATWVCDGIIDCIDIADEYDCTPTP (designed binder, N-terminal Met printed as (M)) [SEQ ID NO 12] | > 3
MCDIPPFVCWWPSWCVWATWVCDGAPDCIDNYDEWICTPTP (designed binder, N-terminal Met printed as (M)) [SEQ ID NO 10] | > 3
SEQ ID NO 53 (designed binder, N-terminal Met printed as (M)) MATGVRAVPGNENSLEIEELARFAVDEHNKKENALLEFVRVVKAKEQRARYYYVNRTMYYLTLEAKDGGKKKLYEAKVWVKWVIRGDSPANFKELQEFKLVGDA | > 3
MCWVKIFRCNIVGVCIVNTWVCDGRVDCSDPPDEGWCTPTP (designed binder, N-terminal Met printed as (M)) [SEQ ID NO 11] | > 3
